Measured values: paper PMC2275139
Like-named read-outs stand apart in the source and are kept apart here.

Legend:
[1] = molecular target: T1, IcaR wild type (Staphylococcus epidermidis ATCC 35984 …, UniProt Q5HKQ1 1-185); assay: EMSA
T1 sequence: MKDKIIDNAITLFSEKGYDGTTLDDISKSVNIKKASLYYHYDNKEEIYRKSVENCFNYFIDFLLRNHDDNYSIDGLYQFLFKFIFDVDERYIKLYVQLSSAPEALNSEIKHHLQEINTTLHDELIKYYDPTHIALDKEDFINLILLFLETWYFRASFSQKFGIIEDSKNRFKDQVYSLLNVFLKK

[2] = molecular target: T2, IcaR K33E (Staphylococcus epidermidis ATCC 35984 …, UniProt Q5HKQ1 1-185, K33E); assay: ITC
T2 sequence: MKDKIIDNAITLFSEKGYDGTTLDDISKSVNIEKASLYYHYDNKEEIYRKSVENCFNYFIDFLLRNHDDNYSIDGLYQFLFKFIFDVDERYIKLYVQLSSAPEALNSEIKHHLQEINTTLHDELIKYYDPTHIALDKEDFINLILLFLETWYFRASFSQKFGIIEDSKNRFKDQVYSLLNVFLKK

[3] = molecular target: T1, IcaR wild type; assay: EMSA; remark: listed apart in the source

B1: 16 bp probe (same center as 28E) (dsDNA)
DNA 1: TAACTAACGAAAGGTA
DNA 2: TACCTTTCGTTAGTTA
[1]
  binding result: no binding

B2: 28E (dsDNA)
DNA 1: ACAACCTAACTAACGAAAGGTAGGTGAA
DNA 2: TTCACCTACCTTTCGTTAGTTAGGTTGT
[2]
  binding result: no binding

B3: 24E (dsDNA)
DNA 1: AACCTAACTAACGAAAGGTAGGTG
DNA 2: CACCTACCTTTCGTTAGTTAGGTT
[3]
  binding result: binds
